These are literature values, as cited in PMC12580572.

For series [1], the target named is GluK2 (Rattus norvegicus) (UniProt P42260).
The target in series [2] is GluK5 (Rattus norvegicus) (UniProt Q63273).
Chain of UniProt Q63273 (Q63273 15-979): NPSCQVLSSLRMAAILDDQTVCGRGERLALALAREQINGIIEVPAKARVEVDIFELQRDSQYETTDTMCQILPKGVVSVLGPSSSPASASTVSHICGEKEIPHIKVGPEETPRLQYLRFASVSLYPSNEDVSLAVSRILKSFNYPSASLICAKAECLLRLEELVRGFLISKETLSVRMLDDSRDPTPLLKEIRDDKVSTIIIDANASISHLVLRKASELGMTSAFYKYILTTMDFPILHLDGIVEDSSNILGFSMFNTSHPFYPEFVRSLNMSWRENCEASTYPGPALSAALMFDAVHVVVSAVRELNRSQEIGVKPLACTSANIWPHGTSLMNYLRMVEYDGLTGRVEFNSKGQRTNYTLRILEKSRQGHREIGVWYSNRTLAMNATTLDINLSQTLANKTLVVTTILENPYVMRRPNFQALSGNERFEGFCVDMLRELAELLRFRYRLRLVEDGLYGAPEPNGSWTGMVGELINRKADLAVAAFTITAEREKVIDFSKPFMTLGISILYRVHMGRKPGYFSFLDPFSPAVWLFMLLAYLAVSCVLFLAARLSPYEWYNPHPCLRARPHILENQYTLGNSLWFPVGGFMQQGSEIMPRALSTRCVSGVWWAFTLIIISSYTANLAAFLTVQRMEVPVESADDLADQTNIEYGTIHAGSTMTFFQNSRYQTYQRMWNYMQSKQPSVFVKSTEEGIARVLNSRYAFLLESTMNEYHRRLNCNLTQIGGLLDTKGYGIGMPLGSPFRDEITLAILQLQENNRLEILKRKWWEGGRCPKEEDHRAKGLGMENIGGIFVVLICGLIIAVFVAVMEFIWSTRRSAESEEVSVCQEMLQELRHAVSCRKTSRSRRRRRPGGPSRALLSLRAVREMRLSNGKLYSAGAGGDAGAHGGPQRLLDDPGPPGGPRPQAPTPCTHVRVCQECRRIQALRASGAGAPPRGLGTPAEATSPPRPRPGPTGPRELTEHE

The Kd is the free concentration of one partner at which half of the binding sites on the other are occupied at equilibrium, for simple one-to-one binding. Take GluK2 (from UniProt P42260): the values for the Kd in series [1] and in series [2] were 350 nM and 77 nM, respectively.
